Data as given in the supplement of paper PMC9170038.

System: K4 kissing-loop RNA reporter
Experiment: apparent KD of K4 kissing-loop reporter; higher = weaker reporter binding
Settings: Eterna round: R107
Description: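 RNA-MaP round R107: designed RNA switches with theophylline, tryptophan, arginine or FMN aptamers are transcribed on-chip within common flanks. They are titrated with a labelled K4 kissing-loop RNA reporter in RNA-MaP buffer (100 mM Tris pH 7.5, 80 mM KCl, 4 mM MgCl2), without ligand or with the indicated ligand. Median apparent KD per design.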

[1] = input ligand: theophylline 20 uM
[2] = input ligand: tryptophan 2.4 mM
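Note: bound reporter read as fluorescence of individual clusters on recovered sequencing chips by microscopy, with normalized cluster intensities fitted with a binding model.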

Sequence | apparent KD of K4 kissing-loop reporter (input ligand: FMN 200 uM) [nM] | apparent KD of K4 kissing-loop reporter (input ligand: arginine 13.2 mM) [nM] | apparent KD of K4 kissing-loop reporter (input ligand: none) [nM] | apparent KD of K4 kissing-loop reporter [1] [nM] | apparent KD of K4 kissing-loop reporter [2] [nM]
CCAUCGCUAUUCGAUACCAGCUACUUAGUGAUGUUAAGUUAAAAUUAAUUGUAGAUUAAAAGCCCUUGGCAGCGAAUAGUGAUGG [Theophylline B K4 20] | 159 | 141 | 154 | 119 | 152
CCAUCGCUAUUCGAUACCAGCUCCUUAGUGAUGUUGAGGUUUUACCCACUGUAGGUGGGAAGCCCUUGGCAGCGAAUAGUGAUGG [Theophylline B K4 29] | 523 | 217 | 430 | 480 | 816
CCAUCGCUAUUCGAUACCAGUCAAUAGGUCUUUGGCCUAUUAAUGGAGUGAUGUUCCUUAGACCCUUGGCAGCGAAUAGUGAUGG [Theophylline B K4 12] | 258 | 215 | 260 | 166 | 241
CCAUCGCUAUUCGAUACCAGUCAGGAGGUCUAUGACCUCCUAAUGGAGUGAUGUUCCUUAGACCCUUGGCAGCGAAUAGUGAUGG [#01 K4 Theophylline B Same State] | 509 | 480 | 569 | 338 | 534
CCAUCGCUAUUCGAUACCAGUCAUUUUUUAUUUUAUUUUUUUUUUGGAGUGAUGUUCCAAGACCCUUGGCAGCGGAUAGUGAUGG [whbob_SS_Theo_B_th79] | 117 | 150 | 117 | 158 | 109
CCAUCGCUAUUCGAUACCAGUCUUCGUAGGAAACUACGUCUGCAAAGGAGUGAUGUUCCAGACCCUUGGCAGCGAAUAGUGAUGG [Theophylline B K4 4] | 771 | 553 | 1110 | 444 | 799
CCAUUCAUUUACGAUACCAGUCUAAUAUAUUUGAUCAAAACCCUCGCCGAGUGAUGUUCGGACCCUUGGCAGCGUCUGGGACAGG [eesetmullin] | 477 | 325 | 503 | 403 | 414
CCAUUCUUUUACGAUACCAGUUUAAUUUAUUUAUUCAUAACCCUUGCCGAGUGAUGUUCGGACCCUUGGCAGCGUUUGCGAGAGG [vvuvmullin] | 331 | 314 | 463 | 485 | 358
CCCAAGGGCGAACCGGUAUGAUCACCGGAUACCAGAGGCGAAAGCCUCCCUUGGCAGCCGGUUGUAGUGAUGUUACACUGGUUCU | 91.4 | 74.6 | 88.7 | 118 | 87.7
CCCAGUGAUGUUGGGAGUAGCCACAGGGAAGGAGCGUGCUAGAGCACAGGUAGGUCGCCCACUGGGUCAGUGAUGUUGGUCGGGU [Same State Arginine A GF 28] | 275 | 178 | 186 | 361 | 208
CCCUCACGAGUGAUGUUCGUAGGGUACAGUCAGGAUAUCAUGCGGUUGAGAAGGGACAGAGAGGGCGGCCACGGGUUGCUCAUCU [Tiongequ] | 187 | 288 | 372 | 435 | 390
CCCUCACGAGUGAUGUUCGUAGGGUACAGUCAGGAUAUCAUGCGGUUGAGAAGGGACAGAGAGGGCGGCGGCGGGUUGCUCUUCG [Xeaan] | 155 | 190 | 242 | 271 | 222
CCCUUGGUAUAUCGGUAUGUAUAAGCGGAUACCAGCCAGGACAACGGCCCUUGGCAGCCGGGCAGGCAGAGUGAUGUUCAUGCUA [theeternabot_exclusion_KL_Theo_A_22] | 385 | 368 | 516 | 535 | 346
CCGAAGAACCAGUGAUGUUGGUUGACUAGACAGGAUAUGAGCAACAUCAGAAGGGUCUGGCUUCGGGAGUGGGUCGCGCUGACCU [Geeredin] | 276 | 136 | 845 | 371 | 206
CCGAGUAGCUCCGAUACCAGCACAAUCGUUCAAUGAUCCAUGCGCAAGUGAUGUUUGCGUUGCCCUUGGCAGCGGGCAAAAGCUU [theeternabot_sameState_KL_Theo_B_2] | 61.3 | 90 | 72.4 | 86.5 | 78.6
CCGCCAUCAUCAGAUACCAGGCUGAUGGCGGUAACCGCCAAGCGAGUGAUGUUCGCAUCAGUCCCUUGGCAGCUGAUGAAGACUG [#15 K4 Theophylline B Same State] | 194 | 94.3 | 146 | 155 | 95.2
CCGCUGUAGUGCAUUAAGUGAUGUUUAGUGCAGGAUAUCUGGAAACAGAGAAGGGCACGUACUCGACGAGGCCAAUACAGCGGUU | 319 | 290 | 335 | 310 | 358
CCUAUCUCAUACGAUACCAGUCAACGAUAUUUUAUCGAUGCCAUCACCGAGUGAUGUUCGGACCCUUGGCAGCGUAUGGGAUAGG [Ex Theophylline B K4 4] | 248 | 244 | 270 | 445 | 251
CCUAUCUCAUACGAUACCAGUCGUCGAGUGAUGUUCGAUUAAAUAAAUUUGCCAAAUAACGACCCUUGGCAGCGUAUGGGAUAGG [Ex Theophylline B K4 16] | 273 | 295 | 318 | 334 | 326
CCUAUCUCAUACGAUACCAGUCUAUUAAAACGAGUGAUGUUCGAAAAUUUGCCAUAUAAUGACCCUUGGCAGCGUAUGGGAUAGG [Ex Theophylline B K4 8] | 201 | 185 | 203 | 211 | 176
CCUAUCUCAUACGAUACCAGUGAAUAACCAGUGAUGUUGGAAUAACCAAGGAAUAUUUUUCACCCUUGGCAGCGUAUGGGAUAGG [Ex Theophylline B K4 27] | 492 | 285 | 378 | 385 | 312
CCUAUCUCAUACGAUACCAGUGAAUUUAUAUUUAUAAGCAGUGAUGUUGCAUUCCAAGUACACCCUUGGCAGCGUAUGGGAUAGG [Ex Theophylline B K4 21] | 197 | 203 | 213 | 168 | 161

Sequence | apparent KD of K4 kissing-loop reporter (input ligand: FMN 200 uM) [nM] | apparent KD of K4 kissing-loop reporter (input ligand: arginine 13.2 mM) [nM] | apparent KD of K4 kissing-loop reporter (input ligand: none) [nM] | apparent KD of K4 kissing-loop reporter [1] [nM] | apparent KD of K4 kissing-loop reporter [2] [nM]
CCUAUCUCAUACGAUACCAGUGAAUUUAUGUUUAUUAGCAGUGAUGUUGCAUUCCAAGUACACCCUUGGCAGCGUAUGGGAUAGG [Ex Theophylline B K4 23] | 178 | 201 | 205 | 193 | 151
CCUGAAUCAGUGAGUGAUGUUCACGUCGAUACCAGCUAGGAUACUAGCCCUUGGCAGCGACAAUUGCCAAGUGUGGCUAGUCAAA [Theo B SS t8] | 140 | 134 | 160 | 148 | 147
CCUGAGUGAUGUUUAGGAGGCCCGAUAGAUACCAGAAAUACUGCGUUCCCUUGGCAGCUACGCGGACGGAAGACUACGUUACACG [theeternabot_exclusion_KL_Theo_A_16] | 390 | 222 | 324 | 379 | 325
CCUGCAGCUGUAACCGAGUGAUGAUACGGACGAGGACCGGUACGGCCGCCACUCGCCAGUGAUGUUGGUGUGGGAGGACGUAACU [KL-XTryp-A23] | 241 | 177 | 237 | 256 | 221
CCUUCCACAGAAGGAUAUCGGAGUGAUGUUCCCAAGCAGACCUCAAAGUGGGUAGCCAGUCAGUUCCGAGAAGGUCUGCAGCGAG [theeternabot_exclusion_KL_FMN_B_26] | 250 | 280 | 271 | 370 | 189
CCUUCUCUUGAUAGUGAUGUUAUCAAGGACAAGGAUAUCAUCUCAAUGAGAAGGUGUCCUUGAUAACAUGGAGGUCUGAAACAGA [Omei KL FMN A Exc C v3] | 148 | 249 | 287 | 407 | 385
CCUUCUCUUGAUAGUGAUGUUAUCAAGGGCAAGGAUAUCAUUUUAAUGAGAAGGUGUCCUUGAUAACAUGGAGGUCUGAAACAGA [Omei KL FMN A Exc C v6] | 151 | 86.6 | 114 | 169 | 95.5
CGAACACCCUCGGCCGCCACUAGCCGUAGCCUGCGCUUGCGGAGUGAUGUUCUGAAGCAGGAUGUUAGGACCGGGAGCUACAUCC [theeternabot_sameState_KL_Trp_B_33] | 527 | 542 | 446 | 428 | 371
CGACCGGUAGCGGAUACCAGCCUUUGAGUGAUGUUCGAGUUGAGUUUCCGCGCGUCGAAAGGCCCUUGGCAGCCGAUACGCCUUC [theeternabot_exclusion_KL_Theo_B_14] | 236 | 192 | 207 | 187 | 188
CGAGAGGUCUUGUUUGGAUGUGUUUUAUGGCGAGGACCGGUACGGCCGCCACUCGGGUGAUGUUAGUGAUGUUGAUGUAGUGAUG [dcdmullin] | 91.9 | 79.9 | 93.4 | 162 | 76.9
CGAGUCGGUUCAGAUACCAGCCAAUUAAAGUCGAGUGAUGUUCGACAAUGAACGUCCAAAGGCCCUUGGCAGCUGAAUUGGGAAC [Same State Theophylline B GF 19] | 216 | 107 | 191 | 250 | 122
CGAGUGAUGUUCGUUCGUAUAUUUGGGUGACAGGAUAUGCGGAAACGCAGAAGGGUCACCUUCGGGUUACCCGAAUUGGCGUUAU [Model 1] | 372 | 275 | 427 | 322 | 298
CGAGUGAUGUUCGUUCGUUUAUUUCGUUGACAGGAUAUGCGGAAACGCAGAAGGGUCACCUUUGAGUUAACGGAAUUAACGUUAU [Ex FMN A 28] | 561 | 452 | 544 | 490 | 456
CGAGUGAUGUUCGUUCGUUUAUUUUUUUGACAGGAUAUGCGGAAACGCAGAAGGGUCACCUUUGAGUUAAAAGAAUUUACGUUAU [Ex FMN A 25] | 460 | 475 | 576 | 465 | 414
CGAGUGAUGUUCGUUCUUUUAUUUUUUUGACAGGAUAUGCGGAAACGCAGAAGGGUCACCUUUGAGUUAAAAGAAUUUAAGUUAU [Ex FMN A 24] | 309 | 284 | 353 | 287 | 235
CGAUACGGAAAUACGUGUCUCUAUUCAGAAGGAGCGUGUUUGUACACAGGUAGGUCGCUGAAAUUUAAACUAGUGAUGUUAGACU [JR_SSArginiA_Sub003] | 1160 | 816 | 1160 | 895 | 929
CGAUCUUGGUCGGCCGCCACUACACCCACACCAAAUAGGAAAGUAGCGAGUGAUGUUUGUGACGUUAGGACCGGGACCACUGGUC [theeternabot_sameState_KL_Trp_B_25] | 586 | 321 | 526 | 564 | 392
CGCAGUGAUGUUGCGAAUAUAAUGCAUUCAGAGGAUAUUCGUUUGGGAAGAAGGCUGAAUCGUUCUUCGAGUGAUGUUCGAGGAA [Same State FMN A GF 17] | 141 | 133 | 154 | 136 | 132
CGCAGUGAUGUUGCGAGUUAAUUCAGGGAAGGAGCGCCACAGAUGGCAGGUAGGUCGCCCACGCAGUGAUGUUGCGUAUUCGGGU [Exclusion Arginine A GF 4] | 94.3 | 96.8 | 95.7 | 111 | 80.6
CGCAGUGAUGUUGCUAUUAUUCUUGGUUAACGAGGACCGGUACGGCCGCCACUCGAUUUCUAUCUAGUCCAGUGUUUUUUUGAGU [whbob_EX_Tryp_A_t7] | 347 | 392 | 470 | 451 | 250
CGCCAGUGAUGUUGGCGCAGCUACCGGGAAGGAGCGCCGUAGUCGGCAGGUAGGUCGCCCGGGCAGUGAUGUUGCCUCAUACCGU [Exclusion Arginine A GF 21] | 229 | 247 | 258 | 347 | 236
